Patent US20230189818A1, “RNA-BASED CONTROL OF BOTRYTIS” (priority 2021, published 2023)

B1: GS2280: dsRNA trigger targeting B. cinerea Bcmcm4 (XM_024696090.1); trigger SEQ ID NO 21, RNA 33, reverse complement 45 (nucleic acid, listed as Botrytis cinerea)
sense: AAUGUCCUCGUCCGGUUUGUAAAUCUCCAAACUCCAUGCAGAUUGUACACAACAGGUCUGGAUUCAUGGAUAAGCAAGUUAUCAAGCUUCAAGAAACUCCAGAUUCCGUUCCUGCUGGUCAAACACCACAUUCCGUCUCGAUGUGUGCAUAUGAUGAGUUGGUGGAUCUGUGCAAAGCUGGUGACAGAGUUGAGAUUACUGGUAUCUUCAAAGCUAGUCCAGUUCGUGUCAAUCCUCGCCAAAGAACUCUCAAAAGCAUUUAUAAAACGUACAUCGACGUUUUACACAUUCAAAAGGUUGACAAGAAAAGAAUGGGAAUUGAUGCUUCGACCGUUGAGCAAGAAAUAUCCGAUCAGUUGACAGGCAACAUUGAAGAAACUAGAAAGGUUUCUGAAGAGGAGGAAGAAAAAAUCAGAGAAACCGCUGCAAGACCCGAUAUCUACGAACUUCUAUCUCGAUCCCUCGCACCUAGUAUUUUUGAGAUGGACGAUGUUAAGAAGGGUAUCUUGCUUCAAUUAUUUGGUGGAACUAACAAGUCUUUCGAAAAAGGAGGAAGUCCAAAAUACAGAGGAGAUAUCAAUAUUCUAUUGU
antisense: ACAAUAGAAUAUUGAUAUCUCCUCUGUAUUUUGGACUUCCUCCUUUUUCGAAAGACUUGUUAGUUCCACCAAAUAAUUGAAGCAAGAUACCCUUCUUAACAUCGUCCAUCUCAAAAAUACUAGGUGCGAGGGAUCGAGAUAGAAGUUCGUAGAUAUCGGGUCUUGCAGCGGUUUCUCUGAUUUUUUCUUCCUCCUCUUCAGAAACCUUUCUAGUUUCUUCAAUGUUGCCUGUCAACUGAUCGGAUAUUUCUUGCUCAACGGUCGAAGCAUCAAUUCCCAUUCUUUUCUUGUCAACCUUUUGAAUGUGUAAAACGUCGAUGUACGUUUUAUAAAUGCUUUUGAGAGUUCUUUGGCGAGGAUUGACACGAACUGGACUAGCUUUGAAGAUACCAGUAAUCUCAACUCUGUCACCAGCUUUGCACAGAUCCACCAACUCAUCAUAUGCACACAUCGAGACGGAAUGUGGUGUUUGACCAGCAGGAACGGAAUCUGGAGUUUCUUGAAGCUUGAUAACUUGCUUAUCCAUGAAUCCAGACCUGUUGUGUACAAUCUGCAUGGAGUUUGGAGAUUUACAAACCGGACGAGGACAUU
B2: GS2303: dsRNA trigger targeting B. cinerea Bcded1 (XM_001550339.2); trigger SEQ ID NO 24, RNA 36, reverse complement 48 (nucleic acid, listed as Botrytis cinerea)
sense: GGGCUAUAUAAGCUUUCAUCUAGGUUUUCCAAGAAACGCAUUACGAUAGACAUGUUCUCCAAAAAUCUUACUGGUCCUGCUUUCAGCAUUUCCAUGGAUCAUGAAGUCCUCCACUAUGGAAGAUUUGCAAAAUAUUUUCGACAUUGCAUUUUGCUGCAUUUCGCAUUUCUAGAUAGAAAAAAAGUGGGAUUCAUAUUCUCGAUAUUUUCUUCGUUGUCUUUUAUUCACAAGACACAUGGCAAGGGAGGAUACCAUUUGAGAGCUUGAAUUGAAGGCUUUCCUCUUACUUUUUUUAUUUUUCACAUCAUCUACGAGUGGGCGUCUUUUACGAUCAAAUCGAUAUACGACAGUGGCACAAAAUAGAAUAGGCAUUUCUCUUCUUAAAAAAGAUUUAAGGGAAGAGUUGGUGCUUGUUCUCUAUAACGCUGAUGGCAUUCGGAAGUGCUCCUGUCCAUUCAGGCUGAGACUGAGACCCAAAAUGUUGGCAGGUACGGCAGAAAGAAGUCUGCUUCAUAUGAUUGAUGGAGGAAGAAAGAAAUAUGGAAUGCGAUGGAUGAGUAAUUACUUUAAAUGAAUAUGAAAA
antisense: UUUUCAUAUUCAUUUAAAGUAAUUACUCAUCCAUCGCAUUCCAUAUUUCUUUCUUCCUCCAUCAAUCAUAUGAAGCAGACUUCUUUCUGCCGUACCUGCCAACAUUUUGGGUCUCAGUCUCAGCCUGAAUGGACAGGAGCACUUCCGAAUGCCAUCAGCGUUAUAGAGAACAAGCACCAACUCUUCCCUUAAAUCUUUUUUAAGAAGAGAAAUGCCUAUUCUAUUUUGUGCCACUGUCGUAUAUCGAUUUGAUCGUAAAAGACGCCCACUCGUAGAUGAUGUGAAAAAUAAAAAAAGUAAGAGGAAAGCCUUCAAUUCAAGCUCUCAAAUGGUAUCCUCCCUUGCCAUGUGUCUUGUGAAUAAAAGACAACGAAGAAAAUAUCGAGAAUAUGAAUCCCACUUUUUUUCUAUCUAGAAAUGCGAAAUGCAGCAAAAUGCAAUGUCGAAAAUAUUUUGCAAAUCUUCCAUAGUGGAGGACUUCAUGAUCCAUGGAAAUGCUGAAAGCAGGACCAGUAAGAUUUUUGGAGAACAUGUCUAUCGUAAUGCGUUUCUUGGAAAACCUAGAUGAAAGCUUAUAUAGCCC
B3: GS2297: dsRNA trigger targeting B. cinerea Bcrpb5 (XM_024693733.1); trigger SEQ ID NO 23, RNA 35, reverse complement 47 (nucleic acid, listed as Botrytis cinerea)
sense: UGCACCAUCAGGUCCCGCUCAAAAGAUUAUUCCCGCUGUCGCAUCCGAGACAAGAAUCGAGACCUUCGUCGAGCAAGAUUUACUUGUCAAUAUUACACAUCAUGAAUUGGUUCCCAAGCAUGUUUUGUUAAGUAGAGAAGAGAGGGCCAAGUUGUUGUCAAGAUAUAGAUUGAAGGAUACUCAACUCCCACGUAUUCAGGCUGCGGAUCCAGUUGCAAAAUAUUUGGGAUUGAGAAGAGGGCAGGUCGUUAAGAUUAUCAGAAAGUCGGAAACUGCUGGUCGUUAUGCCAGUUACAGAUUGUGCGUAUAAUGGAGCUGGAGGGUAGAUGAUUUGGUGUUAAUAACUAGGGAGUUUCUUGGGAAAAAUUUGCAUAUUUGGGGAAGGCGUAAUAGGCUGGAAGAAAGACUGAGGAUGAGAUUGUCUAUUUUGGCUUUCCAGGAAGCAAUACUUUGAGACAUGAAAUUUGAUAUUAAAUUUCUUGUUCUGUAUAUUUCUGAUAGUUUCAGAGCUUUUCAAUAAGAUCUAUUCUACAGUUUUAAGAAUCCAGACUCACCCUUUGAGAAGCUCAUACAAAGUUCCUUCCUA
antisense: UAGGAAGGAACUUUGUAUGAGCUUCUCAAAGGGUGAGUCUGGAUUCUUAAAACUGUAGAAUAGAUCUUAUUGAAAAGCUCUGAAACUAUCAGAAAUAUACAGAACAAGAAAUUUAAUAUCAAAUUUCAUGUCUCAAAGUAUUGCUUCCUGGAAAGCCAAAAUAGACAAUCUCAUCCUCAGUCUUUCUUCCAGCCUAUUACGCCUUCCCCAAAUAUGCAAAUUUUUCCCAAGAAACUCCCUAGUUAUUAACACCAAAUCAUCUACCCUCCAGCUCCAUUAUACGCACAAUCUGUAACUGGCAUAACGACCAGCAGUUUCCGACUUUCUGAUAAUCUUAACGACCUGCCCUCUUCUCAAUCCCAAAUAUUUUGCAACUGGAUCCGCAGCCUGAAUACGUGGGAGUUGAGUAUCCUUCAAUCUAUAUCUUGACAACAACUUGGCCCUCUCUUCUCUACUUAACAAAACAUGCUUGGGAACCAAUUCAUGAUGUGUAAUAUUGACAAGUAAAUCUUGCUCGACGAAGGUCUCGAUUCUUGUCUCGGAUGCGACAGCGGGAAUAAUCUUUUGAGCGGGACCUGAUGGUGCA

What follows are molecules tested on Botrytis cinerea B05.10 isolate (assay: Greenhouse whole plant assay (tomato 'Lanai', disease severity)). Conditions: 8 g ai/ha; final rating day (rating #3); three runs; four-week-old 'Lanai' tomato plant.
Type: in vivo

B1 and B2 are the same in “% control” value: 0% for the first, 0% for the second.

In the case of B3, the “% control” value is reported as 6%.

Same assay, conditions: 25 g ai/ha; final rating day (rating #3); three runs; four-week-old 'Lanai' tomato plant

First: B1
Second: B2
The “% control” value of the first is higher: 36% for the first, 34% for the second.

For B3, the “% control” value was 29%.

The molecules below were run on Botrytis cinerea conidia (assay: In vitro liquid-based assay (fungal biomass, 96-well plates, Cytation 5)). Conditions: 25 ppm dsRNA, co-incubated with conidia for three days, vs untreated control.
Type: cell-based
Outline: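 Conidia (5000/mL stock) were co-incubated with dsRNA or control treatments in pH 6.0 minimal medium. Incubation ran 72 h at 23 °C, shaking at 120 rpm under continuous light. Fungal biomass was measured by brightfield imaging (8 slices per well, 2.5× lens) and expressed as average reduction versus control.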

Going from B1 to B2, the “Average % Reduction in Biomass” value falls from 16% to 13%.

B3 was tested, and the “Average % Reduction in Biomass” value was 11%.

Same assay, conditions: 150 ppm dsRNA, co-incubated with conidia for three days, vs untreated control

First: B1
Second: B2
The “Average % Reduction in Biomass” value of the first is higher: 33% for the first, 26% for the second.

With B3 the “Average % Reduction in Biomass” value was 24%.
